Experimental data from US20210054062A1.

How the values were obtained:
[1] = target: Recombinant human FAM19A5 protein (His-tagged) (human) (UniProt Q7Z5A7); assay: SPR (Biacore): FAM19A5 protein immobilised on the sensor chip, antibody injected at 1.1 to 90 nM in single cycle kinetics mode, 1:1 binding fit
[2] = target: Recombinant human FAM19A5 protein (His-tagged) (human) (UniProt Q7Z5A7); assay: SPR, FAM19A5 immobilised on sensor chip, antibody as analyte, single cycle kinetics, 1:1 fit
[3] = target: human FAM19A5-Fc protein (human), Q7Z5A7; assay: cell-based or functional assay
human FAM19A5-Fc protein (human), Q7Z5A7, sequence (Q7Z5A7 44-132): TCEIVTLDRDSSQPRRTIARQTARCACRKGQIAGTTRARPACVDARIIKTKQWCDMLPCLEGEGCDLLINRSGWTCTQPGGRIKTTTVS

Recombinant human FAM19A5 protein (His-tagged) (human), sequence (Q7Z5A7 44-132): as above

Row | koff [1] | kon [1] | Kd [2] | amount of phagocytosis (uptake of pHrodo Green E. coli BioParticles by BV2 cells) compared to the control group (PBS alone), about 10 hours after BioParticles [3] | Binder
1 | 0.000567 s⁻¹ | 1.64e+06 M⁻¹ s⁻¹ | 0.345 nM | 86% | Reference anti-FAM19A5 antibody ("1-65") (antibody, V domains shown) VH: AVTLDESGGGLQTPGGALSLVCKASGFTFSSYQMGWVRQAPGKGLEWVGVINKSGSDTSYGSAVKGRATISRDNGQSTVRLQLNNLRAEDTGTYFCAKGSASYITAATIDAWGHGTEVIVSS VL: ALTQPSSVSANPGETVKITCSGGGSSGYGYGWYQQKSPSSAPLTVIYWNDKRPSDIPSRFSGSKSGSTHTLTITGVQAEDEAVYFCGNDDYSSDSGYVGVFGAGTTLTVL
2 | 0.000822 s⁻¹ | 373000 M⁻¹ s⁻¹ | 2.2 nM | 96% | Anti-FAM19A5 antibody ("SS01-13-s5") (antibody, V domains shown) VH: AVTLDESGGGLQTPGGALRLSCKASGFTFSSYQMGWVRQAPGKGLEWVSAINKSGSDTSYGSAVKGRATISRDNGQSTLYLQMNSLRAEDTAVYFCAKGSASYITAATIDAWGHGTEVIVSS VL: ALTQPSSVSANPGETARITCSGGASSGYGYGWYQQKPSSAPLTVIYKDSERPSDIPSRFSGSSSGSTHTLTISGVQAEDEAVYFCGNDDYSSDSGYVGVFGAGTTLTVL
3 | 0.00183 s⁻¹ | 1.02e+06 M⁻¹ s⁻¹ | 1.8 nM | 89% | Anti-FAM19A5 antibody ("S5-SG") (antibody, V domains shown) VH: AVTLDESGGGLQTPGGALRLSCKASGFTFSSYQMGWVRQAPGKGLEWVSAINKGGSDTSYGSAVKGRATISRDNGQSTLYLQMNSLRAEDTAVYFCAKGSASYITAATIDAWGHGTEVIVSS VL: ALTQPSSVSANPGETARITCSGGASSGYGYGWYQQKPSSAPLTVIYKDSERPSDIPSRFSGSSSGSTHTLTISGVQAEDEAVYFCGNDDYSSDSGYVGVFGAGTTLTVL
